The text below walks through data of the DeepSol protein solubility set.

The data set is described as follows: soluble on expression in E. coli; label from the status in PepcDB or PDB records.
Take “MSLKLITCDLDGTLLNSSMEISDANVQAIKRAQENGIEFMVASGRAPHESQPMLKEYWIDCSFINLNGGLVFDTAGNLIVKNPLKLETAKKICRLLKKEGFYFELVTSNHVYSEDLSQRITNVAHLMVELNPMLTFKEAVLVSASKPAIVSIQQVPSYEDLMDEPGTEVMKILVFDSRGQYAFTDVIKKIEEIDKLSITSSAADNIEINAASAQKGQSLLDYAAAKGIKREEIAAIGDNLNDESMIQAAGTGVAMGNAVPQIKTIASFVTKSNNEDGVAWAIDKIIADNQKEGHHHHHH”: the “soluble on expression in E. coli” value is given as “soluble”.
Next, “MGSDKIHHHHHHMFEGPIIDARIKSIASGFRAVSVYVDATSAEEGRFDPRLLGEACDCALADGPAWAEAHLASWSDAYAVFGAKPNRTPCSAQALRKRVLKDGTLSTINPIVDLYNAISLKYAVPVGGENFDAYVGRPHLTVADGSETFDTMVNGEAVNDPPLPGEVIWRDDIGVTCRRWNWRQGTRTRLKTLTGRMWFVLEALETMPDDALAEATDAMVGGLNALMPGCKIASQEIAIAG”: “not soluble”.
To “MRGSHHHHHHGSMAEKNYVMAIDQGTTSSRAIIFDRNGKKIGSSQKEFPQYFPKSGWVEHNANEIWNSVQSVIAGAFIESGIRPEAIAGIGITNQRETTVVWDKTTGQPIANAIVWQSRQSSPIADQLKVDGHTEMIHEKTGLVIDAYFSATKVRWLLDNIEGAQEKADNGELLFGTIDSWLVWKLTDGQVHVTDYSNASRTMLYNIHKLEWDQEILDLLNIPSSMLPEVKSNSEVYGHTRSYRFYGSEVPIAGMAGDQQAALFGQMAFEKGMIKNTYGTGAFIVMNTGEEPQLSDNDLLTTIGYGINGKVYYALEGSIFVAGSAIQWLRDGLRMIETSPQSEELAAKAKGDNEVYVVPAFTGLGAPYWDSEARGAVFGLTRGTTKEDFVRATLQAVAYQSKDVIDTMKKDSGIDIPLLKVDGGAAKNDLLMQFQADILDIDVQRAANLETTALGAAYLAGLAVGFWKDLDELKSMAEEGQMFTPEMPAEERDNLYEGWKQAVAATQTFKFKAKKEGE” belongs “soluble”.
In the case of “GPGSMMVLDIQLFRDETGANIIRESQRRRFADPDIVDAIIEADKKWRRTQFLTEASKKLINICSKAVGAKKKAKEADGDTSEIPPQVKEAYENGTLKGEQVEQLCVLQLKQLSKDLSDQVAGLAKEAQQLEEERDKLMLNVGNILHESVPIAQDEETGNTVVRTFGNTTKRAKLNHVSIMERLGMMDTSKAVTSMAGGRSYVLKGGLVQLQVALVSYSLDFLVKRGYTPFYPPFFLNRDVMGEVAQLSQFDEELYQVSGDGDKKYLIATSEMPIAAYHRGRWFTELKEPLKYAGMSTCFRKEAGAHGRDTLGIFRVHQFDKIEQFVVCSPRQEESWRHLEDMITTSEEFNKSLGLPYRVVNICSGALNNAAAKKYDLEAWFPASGAFRELVSCSNCTDYQSQSVNCRYGPNLRGTAAQNVKEYCHMLNGTLCAITRTMCCICENYQTEEGVVIPDVLRPYMMGIEMIRFENNAQAEGTTPDKGE”, the “soluble on expression in E. coli” value is on record as “soluble”.
To “SLSMKLLIADDEDTIRNGIAKYIKLHTDRFSQIYLAENGQQALDIILQYQPDMMLLDVQMPLKTGLEVLQEAQKLSLVPKTIILSGYDDFEYARKALRYGAKDYLLKPCRSSEILEAINKLVQEQLGTKEG” belongs “not soluble”; to “MTTMTPDAAGLAALEARLKQDLAWLELPAKSWVPRRVVDGKSVVDVVIVGAGMAGLVASAMLRRLGVDNQLVLDRARAGEEGPWVTFARMRTLRSPKELTGPAMGMPALTFRAFYEAQYGRQAWQALDRAPRTMWMDYLIWYRKVLDLPVRNGVSVERIHARTDELFALDISEGGTSRQILARHVVLATGRDGLGGAYVPSLCDGIDRRFWAHSSAPIDFERLRGRRVAVVGAGASAMDNAAMALEAGAARLDLFIRRADIPRVNKFTGIGSQGVVHGFAGLSDDWKWRFLDHTLKAQTPPPRQSVLRVSAYPQAHFHLASPIDDLAVAGDHLTVTTPKGRYATDFIIFGTGFKVDLALRDELAEFAPHIRFWCDRFPAPDGMDNAELENSPDLGDSFQFLEKEPGACPMLARLHCFNYPATLSHGKLSGDIPAISEGADRLARGIVRRLFVEDREIHFANLKAFATPELAGDEWQDADVTHQPAE”, “soluble”.
On to “GSPPWRGRREQCLLPPEDSRLWQYLLSRSMREHPALRSLRLLTLEQPQGDSMMTCEQAQLLANLARLIQAKKALDLGTFTGYSALALALALPADGRVVTCEVDAQPPELGRPLWRQAEAEHKIDLRLKPALETLDELLAAGEAGTFDVAVVDADKENCSAYYERCLQLLRPGGILAVLRVLWRGKVLQPPKGDVAAECVRNLNERIRRDVRVYISLLPLGDGLTLAFKI”, for which the “soluble on expression in E. coli” value is “soluble”.
In the case of “MTVQTAIFDLIKQAKTIIIHRHQRPDPDAIGSQLGLAAIIKASFPAKRVLTPGKQYHGFDWLGQMDEVTEADYQDALVLILDTANQPRIDGELWNQGKTIVKIDHHPNDDAFGDPQWVDVDASSTSEMIYNWYAPLAAELTLTANAARLLYAGIVGDTGRFLYSATKPSTMRAAAALMEAGADAEAVNRIEDTITLPVARLSAYVYEHLTQLDSGAAYVILTNAILDSFAIGDASTAGVVPLPGRIDTVKCWAIFVQQKEGDFRIRLRSKGPSINGVAKNHDGGGHALASGAKAKDQQEIETVVRELDQVASQYEKEVLEHHHHHH”, the “soluble on expression in E. coli” value is recorded as “not soluble”.
Next, “MAYTLATHTAGVIPAGKLERVDPTTVRQEGPWADPAQAVVQTGPNQYTVYVLAFAFGYQPNPIEVPQGAEIVFKITSPDVIHGFHVEGTNINVEVLPGEVSTVRYTFKRPGEYRIICNQYCGLGHQNMFGTIVVKE”: “soluble”; “MGSDKIHHHHHHMREHDEGLLNGITPDRIRDHIRALEGVRHPLAAPEALERAAGYIRETFGSLGYPVADHLFMDGGREFANIIATHTGGSKSGRRVLVVAHYDTVTTTPGADDNASGVAVLLELATILKCLRFERCLQFVAVTLEENEDEHNPRDLGTRGSRALAAHARREGWEIEGAVVLESVAYAGDAVVQRTPAGIPFTVPATGNFIGVIGNEASRGMVDRFGQAVGSREAGLPWVPLVVPGNGGLLPDSRRSDHAPFWDHGYKAIMLTDTTNFRNPHYHQPSDTLETLNLDFAVQVCRATAALLLDIAKASEP”: “not soluble”.
Next, “MAHHHHHHMAPSELHKLSYWEEVYQGEKENYEEANIQPEEWFEENCDKIINWMSNHFSEEEKKEQVAILDVGCGNGLFLHKLHQRGFGNLCGFDFSASAIELAKKLFVGCGGEGEEDSRINRGEEPTDVYVQVLDIYNIEDEIKENSKLKKKYKLINDKGTFDIFFMNDKAQEYFKHVSFFFQVDTIFCLTSCNACKEELLSIVNHFNETNGKFQLTLFDEIRYESITFGGVKGQIITTLIFACS”: “soluble”; “MGSDKIHHHHHHMRKRRVYWTLFITAFAWLASCSDDDINGSSGFNPNQPIEITEFYPDSGGIATPMIIEGRNFGTDTTGMKVYFEDVDGIRHPAGLVSSNGSRIYAFVPKGLTFKREMNILVERRTPDGQEYIGKAPDQFLYKTQTSVSTVAGLASPDNNINTVGGDLATCTFSSPFYLCIDGEDNIFVVDRKGDSGKDKQPNTTCRNEKGEGVNGNISMISIASNSSIVLKYGTAYINAPAYSDEKDAEAVYIPDDAGMKYYDMQKLLNYVPRYRTVLKSEELSTVDENNWKHCFVINKLDHMIYTVMWKGQLVRINPKNRTAEILLKKISNVATGDGGKAGSDSYIAFSPIKGEENVLYVSLADFHQIWRVDVSKITPEDKDTYNGESYAGKAIYEGVMNGKGWEDGLLKNAKFRHPRQICFTDDGKMYIADSGNSCIRVIDTTMPKERAAVTTPIGLPGAEGYKDGGPEIAKFHFPCGVAVNSDGTIVYVADTQNKVIRKLSIE”: “not soluble”; “MGSDKIHHHHHHMRRIKIFDTTLRDGEQSPGASMSIEEKVEMALMLEDLGVDLIEAGFPVSSPVQFEAVKRVASAVQKPIVVGLARCVEKDIDAAYEALKDRPKDKRMIHVFIATSPIHRKYKLRMEKEEILERIRRYVGYAKQFFDLVEFSAEDASRTEVPFLIEAYKTAIEAGATTINVPDTVGYALPDEFGELIKTLREGVPGIENVDLSVHCHNDLGLAVANSLAAVQNGATQVEVTLNGIGERAGNCALEEFVMILKVRKDKLPYETGIKTELIYPASRLLTHITGLIPSRNKPIVGENVFLHESGIHQDGVLKHRETYEIMKPSDIGRSSETLVLGRHSGKHALRKKLETYGIKLDEETFQKVFEKFTELADRKKEVYDDDLFSIVSEVLREPINGYKLVHFHVHTGNTLLPTAAVVLQVGNEKREAAEAGNGPVDAIFKAIDKALGIQPKLEEYIIQAVGTGKNAQGEVKLTLRIDNELYSGRGVSTDIVEASAIAYINAINKYLIAKGLLRKNGGAE”: “not soluble”.
To “MDVSLESLVNSLQATRSTLLSEIEMLNDTEVNVKPRRDKWSIIQILHHLHLVEQSVTSALVYALQKNERNMTPFKDLQLTLDRTHKREAPQQMQPTETLMKKQQGIQLLEHSRQELLHALHSVIDEKDLFENGLKHPVFNDLNLYQWVQFLDLHEQRHLTQLKEAKHAILQR” belongs “not soluble”; to “PNRRADDNATIRVTNLSEDTRETDLQELFRPFGSISRIYLAKDKTTGQSKGFAFISFHRREDAARAIAGVSGFGYDHLILNVEWAKPSTN”, “soluble”; to “SPAPVQDPHLIKVTVKTPKDKEDFSVTDTCTIQQLKEEISQRFKAHPDQLVLIFAGKILKDPDSLAQCGVRDGLTVHLVIKRQHRAMGNECPA”, “soluble”.
“MPKMIMVNKKASESQVMELEKRNYNNPVVLCGFAGSTPTGVLAASYIVETLGMHQVAHLISQHIPPVAVFVGGKLRHPFRIYANNSNTVLVAMCEVPISSAHIYEISNTLMNWIDQVGASEIVIMEGSPANGIPEERPVFAVAEKPKLDKFKKAGIQPADSAIIAGMGGGILNECLVRKITGLSFITPTSVDIPDPGAVLSIIEAINKAYNLKIKTDLLEEQVKALDEQIKKIEEQYKELQEKQKEPQSMYG”: the “soluble on expression in E. coli” value is listed as “soluble”.
With “GSMLGMIRNSLFGSVETWPWQVLSTGGKEDVSYEERACEGGKFATVEVTDKPVDEALREAMPKIMKYVGGTNDKGVGMGMTVPVSFAVFPNEDGSLQKKLKVWFRIPNQFQGSPPAPSDESVKIEEREGITVYSTQFGGYAKEADYVAHATQLRTTLEGTPATYQGDVYYCAGYDPPMKPYGRRNEVWLVKA”, the “soluble on expression in E. coli” value was “soluble”.
Next, “MYPNISDCGVIGDTRTAALVNSNGSIDYCSLPYFDSPTVFAALLDERKGGYFSLKPAEAFSSRREYLPDTCILCTSFTTRNGKAALYDFMPHQDDKTRERTQGIHRCIRVDEGRVKFTLTLKLLTFQQTGAIVAAATTSLPESIGGKRNWDYRFTWIRNASFTLKAFFALSHTSEADTFIRWLHDTYRKNGSRGFSQKLNAFVQRFDTEILDASLLIMPLVDFLPVTDQRIQGTIEACQTHLMDNGFIRRYRADDGLEEDEGGFLLCNFWMIECLALSGKSAEAEKLLGITMAAANDLGLFSEEYDPYSREMLGNFPQAFSHIGYINAAATLIDSKLPLANPLEHHHHHH”: “not soluble”; “ISISRADLAFDLFEVDCSEFVLEKKGRPTATKEFRSSTGTLETKYLGAPRSEKQVRLYNKKKEQLQNGTDKDKDFASQFKHWWRLEFQLRSRSIDEIFEVIDTIIFKPFNLKGLSIETQIYLTALIHDKNIWKKLHRNTRARYKKILETHQTSDTDYLGLLKDLLKHERPRLENQLAYYGGRIDKNSFQPFC”: “not soluble”.
Take LSDEDFRAVFGMTRSAFANLPLWRQQNLRRERGLF: the “soluble on expression in E. coli” value is recorded as “soluble”.
